Target: HuR (UniProt Q15717 1-326)
Experiment: fluorescence anisotropy

Sequence of HuR (Q15717 whole entry): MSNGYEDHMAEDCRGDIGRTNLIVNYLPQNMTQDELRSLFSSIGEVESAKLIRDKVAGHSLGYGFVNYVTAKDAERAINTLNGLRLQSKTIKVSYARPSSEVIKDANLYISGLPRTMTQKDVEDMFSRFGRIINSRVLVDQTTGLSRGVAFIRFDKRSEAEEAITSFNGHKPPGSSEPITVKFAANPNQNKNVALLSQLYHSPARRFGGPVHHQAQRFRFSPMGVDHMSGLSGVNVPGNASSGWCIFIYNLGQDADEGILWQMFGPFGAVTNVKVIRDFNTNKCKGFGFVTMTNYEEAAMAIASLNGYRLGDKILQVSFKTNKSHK

B1: miR-16 (mature, 5'TMR-labeled) (ssRNA)
RNA: UAGCAGCACGUAAAUAUUGGCG
  Kd: 120 ± 9 nM
